The results in this text go back to US20150025225A1 (SHIONOGI, published 2015).

Broadly, the EC50 (read off the curve) is the midpoint of the concentration-response curve.

In one assay the target is T1, human EL-C2 tag (human, UniProt Q9Y5X9 21-500).
T1 sequence: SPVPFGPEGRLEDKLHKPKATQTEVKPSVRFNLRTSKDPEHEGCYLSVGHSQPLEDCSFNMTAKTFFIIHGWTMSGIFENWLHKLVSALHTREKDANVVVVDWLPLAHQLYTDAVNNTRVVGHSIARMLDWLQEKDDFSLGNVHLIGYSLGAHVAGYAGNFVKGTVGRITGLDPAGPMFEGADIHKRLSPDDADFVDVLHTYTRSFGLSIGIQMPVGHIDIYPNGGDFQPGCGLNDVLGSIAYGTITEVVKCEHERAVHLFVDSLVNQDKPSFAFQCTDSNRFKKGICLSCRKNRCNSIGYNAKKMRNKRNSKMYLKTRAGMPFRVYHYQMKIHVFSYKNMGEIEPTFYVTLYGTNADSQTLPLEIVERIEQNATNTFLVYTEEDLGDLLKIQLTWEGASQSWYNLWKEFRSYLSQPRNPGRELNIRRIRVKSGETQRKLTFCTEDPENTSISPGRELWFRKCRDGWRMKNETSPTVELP
In words: cell-based or functional assay.

Assay [1] addresses T2, cynomolgus monkey EL-C2 tag (cynomolgus monkey, UniProt Q9Y5X9 21-500 (human entry), limits assumed).
T2 construct: used as heparin extract of transfected HEK293F cells; also called cynomolgus EL
T2 chain: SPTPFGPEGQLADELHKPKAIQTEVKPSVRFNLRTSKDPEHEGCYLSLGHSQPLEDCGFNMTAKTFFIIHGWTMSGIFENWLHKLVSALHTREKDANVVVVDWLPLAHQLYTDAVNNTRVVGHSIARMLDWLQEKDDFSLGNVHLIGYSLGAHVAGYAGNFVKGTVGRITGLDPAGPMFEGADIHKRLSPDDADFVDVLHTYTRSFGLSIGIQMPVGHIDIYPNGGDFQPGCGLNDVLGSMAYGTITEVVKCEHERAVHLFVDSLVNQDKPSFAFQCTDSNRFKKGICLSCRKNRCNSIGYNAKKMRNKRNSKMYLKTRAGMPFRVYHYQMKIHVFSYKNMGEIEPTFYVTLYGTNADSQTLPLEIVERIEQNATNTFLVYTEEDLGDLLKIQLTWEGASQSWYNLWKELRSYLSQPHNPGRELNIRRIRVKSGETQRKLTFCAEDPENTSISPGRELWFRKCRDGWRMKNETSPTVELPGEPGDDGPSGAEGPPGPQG
In words: ELISA-type titration, A450 against antibody concentration; protocol not described in the text.

The target of another assay is T3, mouse EL-C2 tag (mouse, UniProt Q9WVG5 21-500).
T3 construct: used as heparin extract of transfected HEK293F cells
T3 sequence: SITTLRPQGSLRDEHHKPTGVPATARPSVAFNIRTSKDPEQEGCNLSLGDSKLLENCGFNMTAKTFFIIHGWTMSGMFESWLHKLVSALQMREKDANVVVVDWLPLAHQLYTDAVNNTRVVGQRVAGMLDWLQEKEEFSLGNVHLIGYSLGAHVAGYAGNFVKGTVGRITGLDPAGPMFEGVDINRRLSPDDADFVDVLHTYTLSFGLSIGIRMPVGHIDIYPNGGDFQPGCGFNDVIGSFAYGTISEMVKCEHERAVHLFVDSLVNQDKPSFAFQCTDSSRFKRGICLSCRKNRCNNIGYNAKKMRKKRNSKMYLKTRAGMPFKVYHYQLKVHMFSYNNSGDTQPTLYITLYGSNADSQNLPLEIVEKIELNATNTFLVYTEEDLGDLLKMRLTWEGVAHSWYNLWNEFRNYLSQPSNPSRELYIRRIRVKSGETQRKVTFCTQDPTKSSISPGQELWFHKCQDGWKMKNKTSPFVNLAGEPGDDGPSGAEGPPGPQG
Described as above.

Assay [2] deals with T4, human EL[331-459]-mouse EL-C2 tag (human/mouse chimera, UniProt Q9WVG5 21-500 (mouse entry)).
T4 construct: used as heparin extract of transfected HEK293F cells; also called human-mouse chimera EL; Human-Mouse chimeric EL
T4 chain: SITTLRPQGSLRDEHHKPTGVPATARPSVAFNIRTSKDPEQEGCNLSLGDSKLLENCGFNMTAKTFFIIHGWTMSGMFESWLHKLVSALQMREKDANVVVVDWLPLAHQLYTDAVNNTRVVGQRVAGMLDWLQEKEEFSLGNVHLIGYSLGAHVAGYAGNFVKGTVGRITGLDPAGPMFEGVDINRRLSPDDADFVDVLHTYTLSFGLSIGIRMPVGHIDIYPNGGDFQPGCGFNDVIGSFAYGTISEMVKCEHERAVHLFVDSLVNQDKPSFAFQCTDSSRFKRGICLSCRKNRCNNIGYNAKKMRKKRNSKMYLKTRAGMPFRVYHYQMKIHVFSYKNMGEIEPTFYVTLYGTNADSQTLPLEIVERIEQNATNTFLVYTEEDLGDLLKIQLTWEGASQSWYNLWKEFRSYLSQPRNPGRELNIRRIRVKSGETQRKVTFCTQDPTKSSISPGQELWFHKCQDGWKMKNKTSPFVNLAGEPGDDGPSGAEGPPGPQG
The description is as above.

The target in assay [3] is T5, human EL-411-500 fragment (human).
T5 construct: Used as HEK293 lysate
T5 chain: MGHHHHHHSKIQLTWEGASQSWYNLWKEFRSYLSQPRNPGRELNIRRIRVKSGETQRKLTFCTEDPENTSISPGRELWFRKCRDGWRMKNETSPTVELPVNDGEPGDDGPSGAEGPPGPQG
In words: sandwich ELISA: 12B10 (5 ug/mL) captured on anti-mouse IgG-Fc plate, serial dilutions of fragment lysate, detection with biotin anti-C2-tag Fab and HRP-streptavidin, A450. How it is done:
(§1) Assay buffer containing 15 μl of 12B10 antibody (5 μg/mL) was added to immobilized plate of anti-mouse IgG-Fc antibody and incubated for 2 hr. […] After washing the wells three times with 90 μl of washing buffer, 15 μL of assay buffer containing biotin-labeled anti-C2-tag (Fab) antibody and HRP-labeled Streptavidin (Thermo scientific) were added to the wells and incubated at room temperature for 1 hr. After washing the wells three times with 90 μl of washing buffer, 15 μL of TMB+-Substrate-Chromogen (DAKO) was added and incubated at room temperature for 30 min. The reaction was stopped with adding 15 μL of 0.05M H₂SO₄ and then measured absorbance 450 nm.
Background: In an ELISA, binding on a coated surface is turned into a signal by an enzyme label.

Assay [4] addresses T6, human EL-411-459 fragment (human).
T6 construct: Used as HEK293 lysate
T6 chain: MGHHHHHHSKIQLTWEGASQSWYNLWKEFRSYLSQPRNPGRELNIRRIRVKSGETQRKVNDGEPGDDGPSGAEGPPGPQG
The assay is described as above. The procedure:
as §1

B1: 12B10 antibody (antibody, IgG2a, V domains shown)
VH: QVTLKESGPGILKPSQTLSLTCSFSGFSLSTSGMGVGWIRQPSGKGLEWLAHIWWNDEKYYNPSLKSQLTISKDTSRNQVFLKITSVDTADTATYYCARSYDGSPFPSWGQGTLVTVSA
VL: DIQMTQSPSSLSASLGGKVTITCKASQDINKYIAWFQHKPGKGPRLLMAYPFTLQPGIPSRFSGNGSGRDYSFSISNLEPEDIATYYCLQYDNLLWTFGGGTRLEIK
On to B1, for which the “IC50 of EL enzyme activity (NEFA release from HDL)” value with human EL-C2 tag was found to be 47 nM. Also, the “EC50 (read off the curve)” value in assay [1] was around 0.007 µg/mL; in assay [2], around 0.04 µg/mL. Moreover, the binding result was “no binding” with mouse EL-C2 tag, “binds” in assay [3] and “binds” in assay [4].
